Reference: article PMC3617124

What was measured:
Experiment in all cases: fluorescence polarisation
BAKΔC = target: BAKΔC
[1] = target: MCL-1ΔNΔC (residues 172–327) (UniProt Q07820)
[2] = target: BAX (recombinant, tagless, full-length) (human) (UniProt Q07812)
BCL-XLΔC = target: BCL-XLΔC
BFL-1/A1ΔC = target: BFL-1/A1ΔC

Sequence of BAX (recombinant, tagless, full-length) (human) (Q07812 whole entry): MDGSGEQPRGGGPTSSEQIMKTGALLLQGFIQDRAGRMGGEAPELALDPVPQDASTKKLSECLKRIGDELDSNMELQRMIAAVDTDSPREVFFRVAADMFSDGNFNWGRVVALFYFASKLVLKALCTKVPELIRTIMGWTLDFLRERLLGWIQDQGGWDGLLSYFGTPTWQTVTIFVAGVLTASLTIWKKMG
Sequence of MCL-1ΔNΔC (residues 172–327) (Q07820 172-327, stated change not applied): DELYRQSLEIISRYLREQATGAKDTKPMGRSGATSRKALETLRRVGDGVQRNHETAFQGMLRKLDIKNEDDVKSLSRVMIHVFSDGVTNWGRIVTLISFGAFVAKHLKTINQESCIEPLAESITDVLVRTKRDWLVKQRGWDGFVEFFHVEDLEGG
Sequence of BCL-XLΔC (Q07817 1-209, stated change not applied): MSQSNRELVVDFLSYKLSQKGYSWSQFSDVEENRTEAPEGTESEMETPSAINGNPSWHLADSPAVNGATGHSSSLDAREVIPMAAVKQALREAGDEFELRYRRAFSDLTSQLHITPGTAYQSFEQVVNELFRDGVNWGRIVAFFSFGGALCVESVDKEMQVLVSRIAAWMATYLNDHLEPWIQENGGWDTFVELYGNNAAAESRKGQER

Substance “FITC-BIM SAHB (fluoresceinated stabilized α-helix of BCL-2 domain modeled after BIM BH3) (peptide)” has an EC50 (BAKΔC) of 173 nM, an EC50 [1] of 19.8 nM and an EC50 [2] of 283 nM.
Substance “N-terminally acetylated BIM SAHB (peptide)” has an IC50 (BAKΔC) of 827 nM, an IC50 [1] of 136 nM and an IC50 [2] of 314 nM. For the same substance, the IC50 (BCL-XLΔC) was 572 nM.
For “N-terminally acetylated BIM SAHB (peptide; other documents disagree on this pair)”, the IC50 (BFL-1/A1ΔC) was 603 nM.
